{"source": "paper PMC11700639", "molecular_target": "T1, MPZ-GFP (human), P25189", "T1 chain": "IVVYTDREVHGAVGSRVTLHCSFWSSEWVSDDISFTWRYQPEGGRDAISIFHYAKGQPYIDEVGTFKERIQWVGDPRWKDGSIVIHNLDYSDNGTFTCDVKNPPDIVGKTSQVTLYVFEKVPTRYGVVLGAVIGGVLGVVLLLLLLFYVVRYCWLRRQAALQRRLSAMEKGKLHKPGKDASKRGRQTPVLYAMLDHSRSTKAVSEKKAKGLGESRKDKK", "test": "FRET or BRET", "settings": "remark: other sources report otherwise", "data": [{"binder": "MPZ-mCherry, P25189 30-248 (natural protein) IVVYTDREVHGAVGSRVTLHCSFWSSEWVSDDISFTWRYQPEGGRDAISIFHYAKGQPYIDEVGTFKERIQWVGDPRWKDGSIVIHNLDYSDNGTFTCDVKNPPDIVGKTSQVTLYVFEKVPTRYGVVLGAVIGGVLGVVLLLLLLFYVVRYCWLRRQAALQRRLSAMEKGKLHKPGKDASKRGRQTPVLYAMLDHSRSTKAVSEKKAKGLGESRKDKK", "values": [{"measurement": "FRET efficiency", "value": 5.3, "unit": "%"}]}]}
